The chains are these.
B1: MD47 (scFv, V domains shown)
V domain 1: QMQLVQSGGGLVQPGGSLRLSCAASGFTFSSYAMSWVRQAPGKGLEWVSAISSGGSTYYADSVKGRFTISRDNSKNTLYLQMNSLRAEDTAVYYCAKDLVTAPSYEAFDIWGQGTMITVSS
V domain 2: NFMLTQPPSVSVAPGKTARITCGGNNIGSKSVHWYQQKPGQAPVLVIYYDSDRPSGIPERFSGSNSGNTATLTISRVEAGDEADYYCQVWDSSSHHHVVFGGGTKGTVL
B2: MD62 (scFv, V domains shown)
VH: EVQLVQSGGGLIQPGGSLRLSCAASGVTVSSNYMTWVRQAPGKGLEWVSLIYSGGSTYYADSVKGRFTISRDNSKNTLYLQMNSLRAEDTAVYYCARDLQYYGMDVWGQGTMVTVSS
VL: AIRMTQSPSSVSASVGDRVTITCRASQDIGSWLGWYQQKPGKAPKLLIYAASSLAGGVPSRFSGSGSGTDFTLTISSLQPEDFATYYCQQANSFPLTFGGGTKLEIK
B3: MD17 (scFv, V domains shown)
VH: EVQLLESGGGLVQPGGSLRLSCSASGFTFSTYVMNWVRQAPGKGLEHVSGISSDGGITYYADSVKGRFTISRDNSKNTLYLQMSSLRVEDTAVYYCVKDQDSSSWYDAFDIWGQGTMVTVSS
VL: DIVMTQSPSSLSASVGDRVTITCRASQSISNYLNWYQQKLGKAPKLLTYAASRLQSGVPSRFSASGSGTEFTLTISSLQPEDFATYYCQQSYTTPLTFGGGTKLEIK
B4: MD29 (scFv, V domains shown)
VH: B3 VH with E1Q, V2M, L5V, E6Q, L45P
VL: NIRLTQSPSSLSASVGDRVTITCRATQSISSYLNWYQQKPGKAPNLLIYAASSLQSGVPSRFSGSGSGTDFTLTISSLQPEDFATYYCHQTYTSPYTFGQGTKLEIK
B5: MD45 (scFv, V domains shown)
VH: EVQLVQSGGGLVQPGGSLRLSCAASGFTVSSNYMTWVRQAPGKGLEWVSVIYSGGSTFYADSVKGRFTISRHNSKNTLYLQMNSLRAEDTAVYYCARDLSVRGGMDVWGQGTMVTVSS
VL: EIVLTQSPGTLSLSPGERATLSCRASQSVNSSYLAWYQQKPGQAPRLLIYGASNRATGIPDRFSGSGSGTDFTLTISRLEPEDFAVYYCQQYGVSPEIIFGQGTRLEIK
B6: MD67 (scFv, V domains shown)
VH: B5 VH with Q6E, M113T
VL: not shown
B7: MD63 (scFv, V domains shown)
VH: QVTLKESGGGVVQPGRSLRLSCAASGFTFSSYAMHWVRQAPGKGLEHVSAISSDGGITYFADSVKGRFTISRDNSRNTLFLQMSSLRVEDTAVYYCVKDQDSNSWYDAFDIWGRGTMVTVSS
VL: not shown

Numbering of substitutions follows the chain as printed.

A word on the Kd: it is a measure of binding affinity in units of concentration. Read a high Kd as lower affinity.

The first assay addresses T1, SARS-CoV-2 spike receptor binding domain (RBD) (SARS-CoV-2 Wuhan-Hu-1 (QHD43416), UniProt P0DTC2). In words: cell-based or functional assay.
Turning to B1, the “NT50, plaque reduction neutralization test (PRNT), SARS-CoV-2 on Vero E6 cells” value turned out to be 13 µg/mL.

As to B2, the “NT50, plaque reduction neutralization test (PRNT), SARS-CoV-2 on Vero E6 cells” value was 1.6 µg/mL.

As to B3, the “NT50, plaque reduction neutralization test (PRNT), SARS-CoV-2 on Vero E6 cells” value turned out to be 43 µg/mL.

B4: the “NT50, plaque reduction neutralization test (PRNT), SARS-CoV-2 on Vero E6 cells” value amounted to 13 µg/mL.

As for B5, the “NT50, plaque reduction neutralization test (PRNT), SARS-CoV-2 on Vero E6 cells” value came out at 2.1 µg/mL.

Consider B6, for which the “NT50, plaque reduction neutralization test (PRNT), SARS-CoV-2 on Vero E6 cells” value was found to be 1.9 µg/mL.

The next assay concerns the target SARS-CoV-2 spike S1 subunit (SARS-CoV-2 Wuhan-Hu-1 (QHD43416), UniProt P0DTC2). The assay is described as follows: ELISA.
The molecule B7 gave a Kd of 15.6 nM.

Consider B5, for which binding was put at a Kd of 12.7 nM.

A further assay deals with SARS-CoV-2 spike N terminal domain (NTD) (SARS-CoV-2 Wuhan-Hu-1 (QHD43416), UniProt P0DTC2). In words: ELISA. In general terms: An ELISA detects its analyte on a solid surface through an enzyme-linked reagent.
As to B1, the binding result is “no binding”.

In the case of B2, the binding result is recorded as “no binding”.

For the molecule B3, the binding result is “no binding”.

As for B4, the binding result was “no binding”.

For the molecule B7, the binding result was “no binding”.

Consider B5, for which the binding result was “no binding”.

As for B6, the binding result was “no binding”.

The target of the next assay is T1, SARS-CoV-2 spike receptor binding …. In words: BLI. Background: In BLI a coated tip is dipped into the sample, and binding shifts an interference pattern.
For the molecule B4, the Kd lay within 0.4 to 5.8 nM.

The molecule B6 came in with a Kd of 0.4 to 5.8 nM.

The values above are taken from paper doi:10.1101/2020.05.20.106609 (bioRxiv, 2020).
